± gives the uncertainty stated by the source.

The nature of this data set: amyloid nucleation score (Sup35N fusion, yeast selection) (log enrichment); library NNK2; higher = more nucleation; inactive = no reads after selection. The gist of the method: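 Random libraries were run with three technical output replicates. In each, psi-negative yeast expressing Sup35N fused to peptides of 20 random codons were induced 24 hours with 100 μM copper sulfate and grown 7 days at 30°C on medium lacking adenine and uracil, and input and output plasmid inserts were Illumina-sequenced. The nucleation score is the DiMSum log enrichment of output over input reads, centred on the mode score of non-aggregating sequences, and sequences under 100 input reads were excluded.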
In turn, VTLGVWRPAFFAFWTPRKQY came in with an amyloid nucleation score of -0.35 ± 1.1.

In turn, YYVSSVLWIRYYQGNRTRSW displayed an amyloid nucleation score of -0.901 ± 0.44.

Consider YADCVYDREPYTV, for which the amyloid nucleation score result was “inactive”.

Substance CFVSNRDYDF gave an amyloid nucleation score of 0.773 ± 0.42.

The substance GVMRIHCGDREC yielded an amyloid nucleation score of 0.8 ± 0.54.

Consider MRCAPLMHHLARPASFRI, for which the amyloid nucleation score was 2.08 ± 0.096.

As for MSMLMRVRCEISVTTML, the amyloid nucleation score was 4.498 ± 0.031.

LAKWGKLCCVLYQYPVSLGE yielded an amyloid nucleation score of 0.71 ± 0.28.

Turning to TIRRVRSALQQHM, the amyloid nucleation score turned out to be 0.041 ± 0.49.

On to SKNSYSAHPKL, for which the amyloid nucleation score stood at 4.83 ± 0.06.

In the case of VVTLDRGLGHNRKGIQLGFR, the amyloid nucleation score is 0.547 ± 0.81.

As for KALFLCILMLSASAFQEECH, the amyloid nucleation score is 4.47 ± 0.085.

In turn, LVLLSFGSV yielded an amyloid nucleation score of -0.127 ± 1.

VIPKHESISILFPAVYPPFE showed an amyloid nucleation score of 0.031 ± 0.23.

Substance EMVIGMFKCTLISSIVLKTC displayed an amyloid nucleation score of 0.484 ± 0.23.

Turning to LIFRAVWVVMSHHLTG, the amyloid nucleation score was 0.039 ± 0.42.

GLSGMEGKLS displayed an amyloid nucleation score of -0.398 ± 0.63.

Consider FRPHQVV, for which the amyloid nucleation score result is “inactive”.

On to IRWNTTFGFDSEAPTCCATS, for which the amyloid nucleation score was determined as 0.026 ± 0.8.

LVIVVT returned an amyloid nucleation score of 3.1 ± 0.091.

For TFDVTRI, the amyloid nucleation score is -0.311 ± 0.33.

VLSTWWVSYAGTVFVRSEGT showed an amyloid nucleation score of 3.58 ± 0.14.

Take DIVANDKMMIIRVIMGTWCH: the amyloid nucleation score came out at 0.927 ± 0.45.

VKVGEISCFNFKEYTFLLTD: the amyloid nucleation score result was “inactive”.

YIGPNKFLKQFDCLINFFLT came in with an amyloid nucleation score of 3.08 ± 0.097.

In the case of FCWFRLLEYFSR, the amyloid nucleation score was -0.201 ± 0.45.

Substance VMRAMFSRAPFGPRNSSPLN came in with an amyloid nucleation score of 0.417 ± 0.37.

In the case of LMKNEFSRYHTSCVVRGNSL, the amyloid nucleation score is 0.334 ± 0.28.

The substance KMLPSGARDLMPMDLLDFMM had an amyloid nucleation score of -0.234 ± 0.25.

Turning to RAGFSSAPLVEGRSLTQRCR, the amyloid nucleation score result is “inactive”.

For IGDYLRLELVL, the amyloid nucleation score was found to be 0.187 ± 0.74.

In turn, YNVQFTSEIVSE had an amyloid nucleation score of 0.001 ± 0.35.

Substance NLSRRCKIADWSIHCATIHE returned an amyloid nucleation score of -0.235 ± 1.1.

The substance PISTSFYRMSILEYGSR had an amyloid nucleation score of -0.529 ± 0.64.

Regarding RRSWCLGFSRDLMSELKGIS, the amyloid nucleation score amounted to 1.4 ± 0.41.

As for SDLAWGERHLLEGLLVRPTT, the amyloid nucleation score is 0.508 ± 0.29.

For the substance TAAGLFISNNHMNYFDAIAY, the amyloid nucleation score is -1.09 ± 0.78.

The substance STRCCTRYVCRTAV yielded an amyloid nucleation score of -0.158 ± 0.34.

Regarding SWTCHGGNLYS, the amyloid nucleation score turned out to be 0.222 ± 0.8.

Regarding AMGMRTSYCGC, the amyloid nucleation score result was “inactive”.

Consider MRWRMCIIFNLVISY, for which the amyloid nucleation score amounted to 0.218 ± 1.1.

For the substance ITFRTYILPDSWIRPRTFEK, the amyloid nucleation score is 3.29 ± 0.054.

In turn, SMRISHTGAQQDLDDCAMRK registered an amyloid nucleation score of 0.635 ± 0.65.

Substance MWQSMLSAVGSVNVMSQLGT yielded an amyloid nucleation score of 1.53 ± 0.33.

On to TLMFVKNFDVRCEWEASFTM, for which the amyloid nucleation score turned out to be 5.37 ± 0.077.

The substance RGWRAGMYFACF returned an amyloid nucleation score of 0.656 ± 0.42.

The substance VKQYYGSESNNGITFILRIA yielded an amyloid nucleation score of 0.177 ± 0.38.

PRSGVSAKQSCAWNVRDGDR had an amyloid nucleation score of 0.566 ± 0.39.

In the case of CWRNTDLKGLGNWPSLLASV, the amyloid nucleation score worked out at 0.589 ± 0.57.

In turn, WYRPTSYRRKHKGDISLDLG had an amyloid nucleation score of -0.226 ± 1.1.

In the case of VYGYDKISHFVHSMNSNIVW, the amyloid nucleation score entry is “inactive”.

In turn, HCSFCVIVGFNRCDALGSHR came in with an amyloid nucleation score of 7.03 ± 0.075.

Take MGGQLLSNECLHSDSFVCFH: the amyloid nucleation score worked out at 1.21 ± 0.47.

Substance SSAWYFSLGTDIAFDAGYSA displayed an amyloid nucleation score of -0.108 ± 1.1.

Consider NASIQR, for which the amyloid nucleation score worked out at 0.564 ± 0.36.

Consider LERGENEVRWTKKLRIKFVF, for which the amyloid nucleation score was -0.228 ± 1.1.

Turning to STCLQD, the amyloid nucleation score is -0.966 ± 1.1.

Take TRCKHDDVW: the amyloid nucleation score was found to be 1.5 ± 0.33.

QDPFQIRLLVVLNFDNLYLW showed an amyloid nucleation score of 2.08 ± 0.1.

Take GYSTRIGASFGLGPVGCSAR: the amyloid nucleation score amounted to 3.06 ± 0.087.

VFFGLWRIVRGETSHFYRDE yielded an amyloid nucleation score of -0.835 ± 0.27.

For the substance WRDGSYLFPDVPERPSRNSG, the amyloid nucleation score result was “inactive”.

In turn, STVFYMNLQGVFRTVSWV gave an amyloid nucleation score of 2.8 ± 0.18.

In turn, NVVIRNRFWMNSGRARISAY returned an amyloid nucleation score of -0.428 ± 0.49.

In the case of THEIFMHSYY, the amyloid nucleation score was -0.913 ± 1.1.

RMRLSYWHCISLGLVLLRPI: the amyloid nucleation score worked out at 0.298 ± 0.39.

In turn, LLLLMWALGLLENLTTLHGF gave an amyloid nucleation score of -0.257 ± 0.47.

Regarding KSLDFR, the amyloid nucleation score worked out at 0.493 ± 0.46.

HHLLPWGWRPVYGSRLRCTL returned an amyloid nucleation score of 4.23 ± 0.049.

Substance SINIYNFAQVSAFYCGLVEC showed an amyloid nucleation score of 5.45 ± 0.078.

In turn, EDHSGF registered an amyloid nucleation score of -1.15 ± 0.28.

TVMGPVILTCVGIAVTSASS gave an amyloid nucleation score of 3.86 ± 0.1.

As for TLFQFWKYLVSTTCIML, the amyloid nucleation score was 3.18 ± 0.11.

WMLIWYGPRLVYIPDLITLP: the amyloid nucleation score entry is “inactive”.

In the case of DTMKFFSSLSMNGENVGLGY, the amyloid nucleation score result was “inactive”.

Regarding ISWIFLKSAFTELAVFWDFI, the amyloid nucleation score is 0.726 ± 0.46.

In the case of EFVLKSLTNLTEIKYAVSLE, the amyloid nucleation score was found to be 2.09 ± 0.099.

In turn, KFGLPREYNSSVPVGPASCL yielded an amyloid nucleation score of 0.272 ± 0.41.

On to CSSSVNCMFITC, for which the amyloid nucleation score was determined as 7.87 ± 0.047.

Substance IIVNMKLVDTS returned an amyloid nucleation score of 0.138 ± 1.1.

RADGSFMKLLA displayed an amyloid nucleation score of -0.628 ± 0.5.

The substance CILLGSWLVNFYVWWSRMPI registered an amyloid nucleation score of -0.031 ± 1.

Consider PMSFTLNRRQRRLHMLRTNN, for which the amyloid nucleation score was 0.854 ± 0.43.

DECCMWMVLPEGSPAQRPLG displayed an amyloid nucleation score of 1.04 ± 0.34.

On to FNSSLWVFRIPNCCNRSAYC, for which the amyloid nucleation score result is “inactive”.

Substance YCTSRVTTRSFISDCLTWIR returned an amyloid nucleation score of 1.97 ± 0.069.

The substance VNIERGFLRLKRLD yielded an amyloid nucleation score of -0.316 ± 1.1.

As for PWHTSFALERKDMGHK, the amyloid nucleation score was -0.094 ± 0.36.

In turn, SYHFQDLW gave an amyloid nucleation score of -0.461 ± 0.25.

As for SEVGEGSPIDMTLARSGSVF, the amyloid nucleation score was 0.913 ± 0.81.

In turn, MLCCCTLQVGFAYIFLFL registered an amyloid nucleation score of 3.28 ± 0.15.

With FESFLTLYIIYTGAANNSWV, the amyloid nucleation score came out at 4.01 ± 0.087.

As for TPVSCFTCRQCLVTGLHTLR, the amyloid nucleation score was 0.466 ± 0.26.

The substance VLCEQHGTGKHSISAEKGHR returned an amyloid nucleation score of 1.44 ± 0.41.

As to CVFISLNMNKIYMLDNSGQW, the amyloid nucleation score turned out to be 8.445 ± 0.036.

IAKPSVRHMYSFHVVDKTGH: the amyloid nucleation score entry is “inactive”.

The substance AHKLCSFSVSKHHFWRLNGK registered an amyloid nucleation score of -0.023 ± 0.62.

HNLMCYGWNFLSVSVVDNCD came in with an amyloid nucleation score of 6.552 ± 0.05.

FSVTMDGYIRI showed an amyloid nucleation score of 0.06 ± 0.44.

On to YIIPGLKFLS, for which the amyloid nucleation score result was “inactive”.

In turn, TTRAKHVHWYELHNVFMLQL displayed an amyloid nucleation score of 7.483 ± 0.054.

ELLGG returned an amyloid nucleation score of -0.343 ± 1.1.

Take TASFK: the amyloid nucleation score was -0.014 ± 0.76.

For YYVHQTHVSCLLAVLCPSLK, the amyloid nucleation score was 8.901 ± 0.039.

For FRIKAEVGPIYTYDTGSFNW, the amyloid nucleation score was -0.162 ± 0.27.

In turn, TQINEVLL returned an amyloid nucleation score of -0.722 ± 0.28.

The substance HDGICSNSGVVSINKNGNYD displayed an amyloid nucleation score of 1.27 ± 0.29.

In turn, GTMDITYTY had an amyloid nucleation score of 2.44 ± 0.11.

GLKTMLY yielded an amyloid nucleation score of -0.227 ± 0.27.

FRRYYLLFVPAFCVPLKCQY: the amyloid nucleation score came out at 0.53 ± 0.66.

NTSMNCRKVMYDMNIYNLSK registered an amyloid nucleation score of 3.49 ± 0.11.

YYAGLVTSDWNTRSLGGMCE registered an amyloid nucleation score of -0.506 ± 1.

The substance MTIQSYGVILLLISVYWLSF had an amyloid nucleation score of 0.584 ± 0.66.

As for SCHVC, the amyloid nucleation score turned out to be 5.854 ± 0.058.

Turning to NRRLRHIWRNNSLTSKN, the amyloid nucleation score was -0.279 ± 0.25.

As to KCGEKRMKCFSDCRRWWLCQ, the amyloid nucleation score worked out at 4.88 ± 0.068.

As for DANLLFGYFPCPCT, the amyloid nucleation score result was “inactive”.

Substance NLAFTNALVLLWNSVYLKDE yielded an amyloid nucleation score of 8.274 ± 0.058.

For the substance TLASRTNF, the amyloid nucleation score entry was “inactive”.

SGLFFTHTFRKLVYRLRSTK yielded an amyloid nucleation score of -1.08 ± 1.1.

As for GLGVSTKRLYFTMMADCFNG, the amyloid nucleation score amounted to 0.131 ± 0.49.

Substance EVSSGTCFGTS returned an amyloid nucleation score of 0.084 ± 0.42.

As to EESYLSHGL, the amyloid nucleation score was 1.22 ± 0.61.

Take DQFRHLVTGSNNTIIKYSGV: the amyloid nucleation score result is “inactive”.

The substance VGKRNLISMVGYPYD returned an amyloid nucleation score of -1.09 ± 0.39.

In turn, SLYVVQYCRSRYLVNCTDRV registered an amyloid nucleation score of 0.129 ± 0.33.

The substance ETYWWRQRLNSRLAFNWH displayed an amyloid nucleation score of 5.16 ± 0.098.

DRVLRVDSLSAVAVNNLVVR returned an amyloid nucleation score of -0.178 ± 1.1.

Substance RSVKDTPCLKLVLMKRDTLK returned an amyloid nucleation score of 0.092 ± 0.54.

In turn, EVTWDVLAIVLTLMKKA registered an amyloid nucleation score of 4.27 ± 0.083.

Consider NWPMGGHVYKHRVSHSG, for which the amyloid nucleation score amounted to 0.095 ± 0.53.

Take NFPMSSFKEEIWLRTRVPLC: the amyloid nucleation score was found to be 0.691 ± 0.66.

Substance HDTESTLVTVLRAFLHRCDY gave an amyloid nucleation score of 0.411 ± 0.56.

Regarding FREVRRF, the amyloid nucleation score amounted to 0.631 ± 0.41.

For MTMGEKTLCPWNHSDLAPSR, the amyloid nucleation score came out at 0.966 ± 0.49.

With RCGSDLCDTFWVTLRGYGEV, the amyloid nucleation score worked out at 0.595 ± 0.43.

For TGRLSIVAKNYWGHSVRAFS, the amyloid nucleation score turned out to be 0.001 ± 0.76.

Substance NFCSMRSKVTCNSDDKFWNH had an amyloid nucleation score of -1.13 ± 1.1.

For CTLRAVMSIVRGYFRCYLVC, the amyloid nucleation score came to 0.255 ± 1.1.

(Values after the supplement of paper PMC12042874.)
